{"source": "patent CN114958811A", "key": {"[1]": {"molecular_target": "RBD-Fc (义翘神州 40592-V05H) (SARS-CoV-2) (UniProt P0DTC2)"}, "[2]": {"molecular_target": "RBD-Fc (义翘神州 40592-V05H) (SARS-CoV-2) (UniProt P0DTC2)", "remark": "listed apart in the source"}}, "note": "Read-outs that look alike come from different tables or passages of the source."}
{"substance": "hACE2-Fc融合蛋白 (fusion of the human ACE2 extracellular domain with the Fc fragment of human IgG1) (Fc fusion)", "values": [{"measurement": "IC50", "setting": "[1]", "result": 7.6, "unit": "nM"}, {"measurement": "IC50", "setting": "[2]", "result": 5.02, "unit": "nM"}]}
